We go through two molecules from patent US20160279199A1, “PHARMACEUTICAL COMPOSITION FOR TREATING A METABOLIC SYNDROME” (Sanofi, priority 2010, published 2016).

The subject of series [1] is db/db mice. In words: Fed blood glucose during treatment of db/db mice. The series is classed as in vivo, mouse. The settings on record: s.c. once daily (AVE0010 0.05, FGF-21 0.75, combination 0.75+0.05 mg·kg−1·day−1), up to 4 weeks, FIG. 6. Here is the method:
(§1) Female db/db mice (BKS.Cg-m +/+ Leprdb/J, age of 6 weeks) were treated with vehicle (PBS), 0.05 mg·kg^−1·day^−1 AVE0010, 0.75 mg·kg^−1·day^−1 recombinant human FGF-21 (SEQ ID NO: 2) or a combined dose of FGF-21 (SEQ ID NO: 2) and AVE0010 (SEQ ID NO:9), (0.75+0.05 mg·kg^−1·day^−1) subcutaneously once daily. Mice were fed ad libitum. Before the first treatment, after one week and 4 weeks blood glucose and HbA1c were measured under fed conditions. After 21 days of treatment an oral glucose tolerance test (OGTT) was initiated. Fasted mice were orally challenged with 2 g·kg^−1 glucose solution and blood glucose was measured at indicated time points.

Series [2] has as its system db/db mice. As to the kind of experiment: Oral glucose tolerance test (OGTT) in treated db/db mice. The class given is in vivo, mouse. The settings on record: after 21 days s.c. once daily (AVE0010 0.05, FGF-21 0.75, combination 0.75+0.05 mg·kg−1·day−1), fasted, 2 g·kg−1 oral glucose, vs vehicle treated obese control, FIG. 5. As for the experimental part: as §1
The next series deals with mouse 3T3-L1 adipocytes. As to conditions: in the presence and absence of insulin; cited from earlier work.
The test system of series [3] is ob/ob mice, db/db mice, ZDF rats. As to conditions: cited from earlier work.
A further series concerns diabetic rhesus monkeys. The settings on record: 6 weeks; cited from earlier work.
Setting [4] is: ob/ob and db/db mice and obese ZDF rats.

B1: FGF-21 (SEQ ID NO: 2): mutated FGF-21 carrying a deletion of amino acids 1-28 of human FGF-21 and an additional glycine at the N-terminus (protein)
chain: GHPIPDSSPLLQFGGQVRQRYLYTDDAQQTEAHLEIREDGTVGGAADQSPESLLQLKALKPGVIQILGVKTSRFLCQRPDGALYGSLHFDPEACSFRELLLEDGYNVYQSEAHGLPLHLPGNKSPHRDPAPRGPARFLPLPGLPPAPPEPPGILAPQPPDVGSSDPLSMVGPSQGRSPSYAS
modifications: G linked to fragment of human FGF21 from H29 to S209
notes: mutated FGF-21 carrying a deletion of amino acids 1-28 of human FGF-21 and an additional glycine at the N-terminus
With B1, in the series with db/db mice [1], the blood glucose entry is given as “inhibition of blood glucose increase”. Further, the “glucose tolerance (OGTT)” value with db/db mice [2] is listed as “small improvement in glucose tolerance”.

B2: FGF21: Fibroblast growth factor 21, metabolic regulator produced primarily by the liver, as studied in the cited literature (protein, UniProt Q9NSA1 29-209, looked up)
Fibroblast growth factor 21: HPIPDSSPLLQFGGQVRQRYLYTDDAQQTEAHLEIREDGTVGGAADQSPESLLQLKALKPGVIQILGVKTSRFLCQRPDGALYGSLHFDPEACSFRELLLEDGYNVYQSEAHGLPLHLPGNKSPHRDPAPRGPARFLPLPGLPPALPEPPGILAPQPPDVGSSDPLSMVGPSQGRSPSYAS
As for B2, in the series on mouse 3T3-L1 adipocytes, the glucose uptake result was “stimulate glucose uptake”. For the same molecule, in series [3] (any dose tested, diabetic or healthy animals), the “mitogenicity, hypoglycemia, or weight gain” value was “did not induce”. Moreover, the “food intake or body weight/composition” value in series [3] (diabetic or lean mice and rats, 2 weeks of administration) is “did not affect”. Besides, in series [3] (ob/ob and db/db mice and 8 week old ZDF rats, dose dependent), the “fed and fasting blood glucose, triglycerides, and glucagon levels” value was “decrease”. Besides, in series [3] (setting [4]), the “blood glucose and triglycerides” value is given as “significantly lowered”; the fasting insulin levels entry is given as “decreased”; the “glucose clearance during an oral glucose tolerance test” value is reported as “improved”. Also, in the series on diabetic rhesus monkeys, the HDL-cholesterol result is reported as “increased”; the LDL-cholesterol entry is on record as “significantly lowered”; the body weight entry is listed as “slightly but significantly decreased”; the “fasting plasma glucose, fructosamine, triglyceride, insulin and glucagone levels” value was “reduced”. In the series on diabetic rhesus monkeys, the hypoglycemia result is “not observed”.
